Measured values as given in the RNAGym collection of RNA variant scans (doi:10.1073/pnas.2313332121).
Fewer inactive variants are shown than the library holds.

B1: TPR 5TU (parent)
chain: GGAUCUUCUCGAUCUAACAAAAAAGACAAAUCUGCCACAAAGCUUGAGAGCAUCUUCGGAUGCAGAGGCGGCAGCCUUCGGUGGCGCGAUAGCGCCAACGUUCUCAACUAUGACACGCAAAACGCGUGCUCCGUUGAAUGGAGUUUAUCAUG

Variants of: B1
Experiment: polymerase ribozyme fitness, log enrichment relative to wild type (log ratio); higher = more active; in vitro selection for triplet polymerase activity
Outline: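 Libraries of mutants in each subunit of a heterodimeric triplet polymerase ribozyme were generated by PCR and transcribed. In triplicate, each went through one in vitro selection round: annealing with biotinylated primer, partner subunit and triplets; frozen incubation at −7 °C; gel excision of extended constructs; streptavidin-bead capture; RT-PCR. Fitness, taken from Illumina sequencing of input and output libraries, is the logarithm of a genotype's enrichment over wild-type enrichment, averaged across replicates with inverse-variance weights. The logarithm is base 2, and genotypes needed ≥10 input reads and ≥1 read per output to be kept.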

Variant	polymerase ribozyme fitness (log ratio)
A26G C27G C87U U148A	≤ -4.2
A22C U53A G84C G112A C129A U134G A147C	≤ -4.2
A3C C5U G62C	-1.89
C96U C125U	-0.382
A52U G94A G133U G143U	-3.88
A22U C57U U78A C79U G84C G117C	≤ -4.2
G59C U78C C85A U144A A150U	≤ -4.2
A47U G58C U61G G81A	-3.65
C14A G59A U82A G84U	-4.06
A22G G92A C108G	≤ -4.2
A3C G11A A19C C54U A122U U135A G143A	-3.73
A47G U90A	-3.82
A19C C27A C125U U148G	≤ -4.2
C8A C32A G62A U82G G143A	≤ -4.2
U44A C54A C75G G92U U145C	≤ -4.2
G25U C38U	-1.98
A21C U56A	-0.39
G50C C54U C87A U135C U144C	≤ -4.2
G67A A89G G92C C93A C116U A122C U127C	≤ -4.2
A19G A26U U31C G92A C96G C103U	≤ -4.2
C8A C85A	-3.27

Variant	polymerase ribozyme fitness (log ratio)
A37G C93U C116G	-2.65
A23U U53G	≤ -4.2
G141C G143C	≤ -4.2
A60G C96U	0.674
G11U G42U G68A G86U C95G A137C	≤ -4.2
U9A U15G G50C G94A U135C G143A	≤ -4.2
A12C A52C C87U A89C	-3.43
C69A A121G	-1.74
U55A C85U	-0.644
G62C C76U U139G	-3.09
A19U U53A C85A	-3.78
A24U G50U U56G G58U C76U A122G	-4.1
G48A G67U G80C C85U C132U	≤ -4.2
U7A A24C A47C U109C A120U	≤ -4.2
C38G C51U	-0.547
U45A G48U G50A G59C G68U C96U C131A A137C G152A	≤ -4.2
C76A G86C C116G C123A	-2.66
C27G G62A A64G A73C G88U C99U A107U G124A U130C U148A	≤ -4.2
A40C U44A U102C U139A A142G A147C U148A A150G	≤ -4.2
C27U U45A G71A C75A A89U C118A	≤ -4.2
U31C U44A G94C C96G U102G U151C	≤ -4.2

Variant	polymerase ribozyme fitness (log ratio)
G83C C99A G133A	-4.12
A29U G59A G140A	≤ -4.2
G84A U90A A121U	≤ -4.2
A19C C36U G70A G80U C105U G152U	-3.99
C72G C99U U101G A142U	≤ -4.2
G48A C96A	-1.51
A66U G86U C103A A142G	≤ -4.2
A28C C57U U82C C85G U111G A137U	≤ -4.2
G59A G94U C95A U104C	-2.63
G81C U135C	-2.22
G59C C95G C103U G126A	-2.28
C18G A52U U82A	-3.02
A3U C105G	-1.75
A17U A19U C63U G68C C95U C96A G140A	≤ -4.2
C95U C99A	-0.15
U53A G70A G88A C96U C123U	≤ -4.2
C76A A89U G141U	-2.94
U33G C35U G59U C75G G128A U139A	-4.05
A47C U82G A142C	-2.54
A60G G67U C93G U102C	≤ -4.2
A29U A37C G80A G88C G133U	≤ -4.2

Variant	polymerase ribozyme fitness (log ratio)
A24U G58A G88U	≤ -4.2
U56C G94C	0.00198
C96U A147U	1.21
A21G A52U C85G A119G C125U A137U	≤ -4.2
A41U U111A	-3.7
A26U U56A A98G	-1.83
A49C G59C A91U	≤ -4.2
A49U G84U A97G C114G	≤ -4.2
A24C U53A G81C C95U G141A	≤ -4.2
C36G C95A	-3.65
A26C A37G A60U U90A G100C G141A C149U	≤ -4.2
G126A A138C	-3.73
C36U C85U G124C	-2.46
G59C G68C C118G	-4.15
C85G C132G	≤ -4.2
A39U A40C C79A U82C C96A U109G A119U G143A	≤ -4.2
A12U U33A C35G C57A U77C U101C U134A	≤ -4.2
G50U G126C A138U	≤ -4.2
G11U A19C G68A G74A C87A C149G	≤ -4.2
A12G G70C A113C U144C A147C	≤ -4.2
G83C A147U	0.501
